B1: Protein BRASSINOSTEROID … 1 (Arabidopsis thaliana (Mouse-ear cress)), O22476 (parent)
chain: MKTFSSFFLSVTTLFFFSFFSLSFQASPSQSLYREIHQLISFKDVLPDKNLLPDWSSNKNPCTFDGVTCRDDKVTSIDLSSKPLNVGFSAVSSSLLSLTGLESLFLSNSHINGSVSGFKCSASLTSLDLSRNSLSGPVTTLTSLGSCSGLKFLNVSSNTLDFPGKVSGGLKLNSLEVLDLSANSISGANVVGWVLSDGCGELKHLAISGNKISGDVDVSRCVNLEFLDVSSNNFSTGIPFLGDCSALQHLDISGNKLSGDFSRAISTCTELKLLNISSNQFVGPIPPLPLKSLQYLSLAENKFTGEIPDFLSGACDTLTGLDLSGNHFYGAVPPFFGSCSLLESLALSSNNFSGELPMDTLLKMRGLKVLDLSFNEFSGELPESLTNLSASLLTLDLSSNNFSGPILPNLCQNPKNTLQELYLQNNGFTGKIPPTLSNCSELVSLHLSFNYLSGTIPSSLGSLSKLRDLKLWLNMLEGEIPQELMYVKTLETLILDFNDLTGEIPSGLSNCTNLNWISLSNNRLTGEIPKWIGRLENLAILKLSNNSFSGNIPAELGDCRSLIWLDLNTNLFNGTIPAAMFKQSGKIAANFIAGKRYVYIKNDGMKKECHGAGNLLEFQGIRSEQLNRLSTRNPCNITSRVYGGHTSPTFDNNGSMMFLDMSYNMLSGYIPKEIGSMPYLFILNLGHNDISGSIPDEVGDLRGLNILDLSSNKLDGRIPQAMSALTMLTEIDLSNNNLSGPIPEMGQFETFPPAKFLNNPGLCGYPLPRCDPSNADGYAHHQRSHGRRPASLAGSVAMGLLFSFVCIFGLILVGREMRKRRRKKEAELEMYAEGHGNSGDRTANNTNWKLTGVKEALSINLAAFEKPLRKLTFADLLQATNGFHNDSLIGSGGFGDVYKAILKDGSAVAIKKLIHVSGQGDREFMAEMETIGKIKHRNLVPLLGYCKVGDERLLVYEFMKYGSLEDVLHDPKKAGVKLNWSTRRKIAIGSARGLAFLHHNCSPHIIHRDMKSSNVLLDENLEARVSDFGMARLMSAMDTHLSVSTLAGTPGYVPPEYYQSFRCSTKGDVYSYGVVLLELLTGKRPTDSPDFGDNNLVGWVKQHAKLRISDVFDPELMKEDPALEIELLQHLKVAVACLDDRAWRRPTMVQVMAMFKEIQAGSGIDSQSTIRSIEDGGFSTIEMVDMSIKEVPEGKL
partner: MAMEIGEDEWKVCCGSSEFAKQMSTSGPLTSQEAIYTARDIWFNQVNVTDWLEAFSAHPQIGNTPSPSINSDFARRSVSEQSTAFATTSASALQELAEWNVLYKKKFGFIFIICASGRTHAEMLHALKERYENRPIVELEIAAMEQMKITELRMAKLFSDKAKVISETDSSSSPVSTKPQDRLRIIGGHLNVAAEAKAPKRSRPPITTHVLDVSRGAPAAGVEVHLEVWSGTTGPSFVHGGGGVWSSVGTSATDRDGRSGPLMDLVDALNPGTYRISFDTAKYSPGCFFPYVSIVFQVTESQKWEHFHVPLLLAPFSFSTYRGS

Tests used:
[1] = variants of: B1; settings: with tthl_arath TTL
[2] = variants of: B1; settings: with tthl_arath TTL; remark: listed apart in the source

effect of a mutation on the interaction [1]	effect of a mutation on the interaction [2]	Variant
decreasing interaction	disrupting interaction	G1048D
decreasing interaction	disrupting interaction	E1078K
	disrupting interaction	A1031T

Reference: IntAct's records for PubMed 15319482
